Experimental data: patent publication US7588931B2, “High arachidonic acid producing strains of Yarrowia lipolytica” (E. I. du Pont de Nemours and Company, priority 2004, dated 2009)
“Also recorded” adds a separate entry of the source.

B1: FBA: Y. lipolytica fructose-bisphosphate aldolase promoter, SEQ ID NO:161 (nucleic acid, listed as Yarrowia lipolytica)
DNA: TAAACAGTGTACGCAGTACTATAGAGGAACAATTGCCCCGGAGAAGACGGCCAGGCCGCCTAGATGACAAATTCAACAACTCACAGCTGACTTTCTGCCATTGCCACTAGGGGGGGCCTTTTTATATGGCCAAGCCAAGCTCTCCACGTCGGTTGGGCTGCACCCAACAATAAATGGGTAGGGTTGCACCAACAAAGGGATGGGATGGGGGGTAGAAGATACGAGGATAACGGGGCTCAATGGCACAAATAAGAACGAATACTGCCATTAAGACTCGTGATCCAGCGACTGACACCATTGCATCATCTAAGGGCCTCAAAACTACCTCGGAACTGCTGCGCTGATCTGGACACCACAGAGGTTCCGAGCACTTTAGGTTGCACCAAATGTCCCACCAGGTGCAGGCAGAAAACGCTGGAACAGCGTGTACAGTTTGTCTTAACAAAAAGTGAGGGCGCTGAGGTCGAGCAGGGTGGTGTGACTTGTTATAGCCTTTAGAGCTGCGAAAGCGCGTATGGATTTGGCTCATCAGGCCAGATTGAGGGTCTGTGGACACATGTCATGTTAGTGTACTTCAATCGCCCCCTGGATATAGCCCCGACAATAGGCCGTGGCCTCATTTTTTTGCCTTCCGCACATTTCCATTGCTCGGTACCCACACCTTGCTTCTCCTGCACTTGCCAACCTTAATACTGGTTTACATTGACCAACATCTTACAAGCGGGGGGCTTGTCTAGGGTATATATAAACAGTGGCTCTCCCAATCGGTTGCCAGTCTCTTTTTTCCTTTCTTTCCCCACAGATTCGAAATCTAAACTACACATCACACAATGCCTGTTACTGACGTCCTTAAGCGAAAGTCCGGTGTCATCGTCGGCGACGATGTCCGAGCCGTGAGTATCCACGACAAGATCAGTGTCGAGACGACGCGTTTTGTGTAATGACACAATCCGAAAGTCGCTAGCAACACACACTCTCTACACAAACTAACCCAGCTCTCC
modifications: misc_feature: Promoter FBA
B2: FBAIN: fructose-bisphosphate aldolase + intron promoter, SEQ ID NO:162 (nucleic acid, listed as Yarrowia lipolytica)
DNA: AAATTGCCCCGGAGAAGACGGCCAGGCCGCCTAGATGACAAATTCAACAACTCACAGCTGACTTTCTGCCATTGCCACTAGGGGGGGGCCTTTTTATATGGCCAAGCCAAGCTCTCCACGTCGGTTGGGCTGCACCCAACAATAAATGGGTAGGGTTGCACCAACAAAGGGATGGGATGGGGGGTAGAAGATACGAGGATAACGGGGCTCAATGGCACAAATAAGAACGAATACTGCCATTAAGACTCGTGATCCAGCGACTGACACCATTGCATCATCTAAGGGCCTCAAAACTACCTCGGAACTGCTGCGCTGATCTGGACACCACAGAGGTTCCGAGCACTTTAGGTTGCACCAAATGTCCCACCAGGTGCAGGCAGAAAACGCTGGAACAGCGTGTACAGTTTGTCTTAACAAAAAGTGAGGGCGCTGAGGTCGAGCAGGGTGGTGTGACTTGTTATAGCCTTTAGAGCTGCGAAAGCGCGTATGGATTTGGCTCATCAGGCCAGATTGAGGGTCTGTGGACACATGTCATGTTAGTGTACTTCAATCGCCCCCTGGATATAGCCCCGACAATAGGCCGTGGCCTCATTTTTTTGCCTTCCGCACATTTCCATTGCTCGGTACCCACACCTTGCTTCTCCTGCACTTGCCAACCTTAATACTGGTTTACATTGACCAACATCTTACAAGCGGGGGGCTTGTCTAGGGTATATATAAACAGTGGCTCTCCCAATCGGTTGCCAGTCTCTTTTTTCCTTTCTTTCCCCACAGATTCGAAATCTAAACTACACATCACACAATGCCTGTTACTGACGTCCTTAAGCGAAAGTCCGGTGTCATCGTCGGCGACGATGTCCGAGCCGTGAGTATCCACGACAAGATCAGTGTCGAGACGACGCGTTTTGTGTAATGACACAATCCGAAAGTCGCTAGCAACACACACTCTCTACACAAACTAACCCAGCTCTCC
modifications: misc_feature: Promoter FBAIN

Tests used:
[1] = system: GUS mRNA; experiment: Comparative analysis of promoters by quantitative (Real Time) PCR of GUS mRNA; format: cell-based, Yarrowia lipolytica; conditions: for transcription activity relative to the TEF promoter: after 24 hrs in HGM, ATCC #76982 strains
Method: The transcriptional activities of the TEF, GPD, GPDIN, FBA and FBAIN promoters were determined in Y. lipolytica containing the pY5-30, PYZGDG, pDMW222, pDMW212 and pDMW214 constructs by quantitative PCR analyses. This required isolation of RNA and real time RT-PCR.
More specifically, Y. lipolytica ATCC #76982 strains containing pY5-30, PYZGDG, pDMW222, pDMW212 and pDMW214 were grown from single colonies in 6 mL of MM in 25 mL Erlenmeyer flasks for 16 hrs at 30° C. Each of the 6 mL starter cultures was then added to individual 500 mL flasks containing 140 mL HGM and incubated at 30° C. for 4 days. In each interval of 24 hrs, 1 mL of each culture was removed from each flask to measure the optical density, 27 mL was removed and used for a fluorometric GUS assay (as described above), and two aliquots of 1.5 mL were removed for RNA isolation. The culture for RNA isolation was centrifuged to produce a cell pellet.
The RNA was isolated from Yarrowia strains according to the modified Qiagen RNeasy mini protocol (Qiagen, San Diego, Calif.). Briefly, at each time point for each sample, 340 μL of Qiagen's buffer RLT was used to resuspend each of the two cell pellets. The buffer RLT/cell suspension mixture from each of the two tubes was combined in a bead beating tube (Bio101, San Diego, Calif.). About 500 μL of […] glass beads was added to the tube and the cells were disrupted by bead beating 2 min at setting 5 (BioPulverizer, Bio101 Company, San Diego, Calif.). The disrupted cells were then pelleted by centrifugation at 14,000 rpm for 1 min and 350 μl of the supernatent was transferred to a new microcentrifuge tube. Ethanol (350 μL of 70%) was added to each homogenized lysate. After gentle mixing, the entire sample was added to a RNeasy mini column in a 2 mL collection tube. The sample was centrifuged for 15 sec at 10,000 rpm. Buffer RW1 (350 μL) was added to the RNeasy mini column and the column was centrifuged for 15 sec at 10,000 rpm to wash the cells. The eluate was discarded. Qiagen's DNasel stock solution (10 μL) was added to 70 μl of Buffer RDD and gently mixed. This entire DNase solution was added to the RNeasy mini column and incubated at room temperature for 15 min. After the incubation step, 350 μL of Buffer RW1 was added to the mini column and the column was centrifuged for 15 sec at 10,000 rpm. The column was washed twice with 700 μL […]. RNase-free water (50 μL) was added to the column. The column was centrifuged for 1 min at 10,000 rpm to elute the RNA.
A two-step RT-PCR protocol was used, wherein total Yarrowia RNA was first converted to cDNA and then cDNA was analyzed using Real Time PCR. The conversion to cDNA was performed using Applied Biosystems' High Capacity cDNA Archive Kit (PN#4322171; Foster City, Calif.) and Molecular Biology Grade water from MediaTech, Inc. (PN# 46-000-Con; Holly Hill, Fla.). Total RNA from Yarrowia (100 ng) was converted to cDNA by combining it with 10 μl of RT buffer, 4 μl of 25×dNTPs, 10 μl 10× Random Hexamer primers, 5 μl Multiscribe Reverse Transcriptase and 0.005 μl RNase Inhibitor, and brought to a total reaction volume of 100 μl with water. The reactions were incubated in a thermocycler for 10 min at 25° C. followed by 2 hrs at 37° C. The cDNA was stored at −20° C. prior to Real Time analysis.
Real Time analysis was performed using the SYBR Green PCR Master Mix from Applied Biosystems (PN# 4309155). The Reverse Transcription reaction (2 μl) was added to 10 μl of 2×SYBR PCR Mix, 0.2 μl of 100 μM Forward and Reverse primers for either URA (i.e., primers YL-URA-16F and YL-URA-78R [SEQ ID NOs:183 and 184]) or GUS (i.e., primers GUS-767F and GUS-891R [SEQ ID NO:185 and 186]) and 7.2 μl water. The reactions were thermocycled for 10 min at 95° C. followed by 40 cycles of 95° C. for 5 sec and 60° C. for 1 min in an ABI 7900 Sequence Detection System instrument. Real time fluorescence data was collected during the 60° C. extension during each cycle. […]

[2] = system: β-glucuronidase (GUS) reporter; experiment: Comparative analysis of promoters by histochemical analysis of GUS expression; format: cell-based, Yarrowia lipolytica; conditions: ATCC #76982 strains, MM, FIG. 5B
Method: Comparative studies investigating the promoter activities of the TEF, GPD, GPDIN, GPM, GPAT, FBA, FBAIN and YAT1 promoters were performed, by synthesizing constructs comprising each promoter and the E. coli gene encoding β-glucuronidase (GUS) as a reporter gene (Jefferson, R. A. Nature. 14(342):837-838 (1989)). Then, GUS activity was measured by histochemical and fluorometric assays (Jefferson, R. A. Plant Mol. Biol. Reporter 5:387-405 (1987)) and/or by using Real Time PCR for mRNA quantitation.
Yarrowia lipolytica ATCC #76982 strains containing plasmids pY5-30, pYZGDG, pYZGMG, pDMW212 and pDMW214 were grown from single colonies in 3 mL MM at 30° C. to an OD600˜1.0. Then, 100 μl of cells were collected by centrifugation, resuspended in 100 μl of histochemical staining buffer, and incubated at 30° C. Staining buffer was prepared by dissolving 5 mg of 5-bromo-4-chloro-3-indolyl glucuronide (X-Gluc) in 50 μl dimethyl formamide, followed by the addition of 5 mL 50 mM NaPO4, pH 7.0.
In a separate experiment, Y. lipolytica Y2034 strains containing plasmids pY5-30, pYGPAT-GUS, pYAT-GUS and pDMW214 were grown from single colonies in 5 mL SD media at 30° C. for 24 hrs to an OD600˜8.0. Then, 1 mL of cells were collected by centrifugation. The remaining cultures were centrifuged and washed 2× with HGM, resuspended in 5 mL each of HGM and allowed to grow at 30° C. further. After 24 and 120 hrs, ˜0.25 mL of each culture were centrifuged to collect the cells. Cell samples were resuspended individually in 100 μl of histochemical staining buffer (supra). Zymolase 20T (5 μl of 1 mg/mL; ICN Biomedicals, Costa Mesa, Calif.) was added to each, and the mixture incubated at 30° C. […]

| Molecule | transcription activity relative to the TEF promoter [1] | promoter activity by histochemical staining [2] | transcriptional activity relative to the TEF promoter ([1]; final day of the 4 day experiment in HGM) |
| --- | --- | --- | --- |
| B1 | about 3.3 times | active; also recorded: much stronger than all the other promoters |  |
| B2 | ~6 times | active; also recorded: strongest promoter activity | about 3 times |
